Data as given in patent publication US12099068B2, “Biomarkers for graft-versus-host disease” (Incyte Corporation, priority 2018, dated 2024).

B1: CLEC7A (protein, UniProt Q9BXN2 1-247, looked up)
C-type lectin domain family 7 …: MEYHPDLENLDEDGYTQLHFDSQSNTRIAVVSEKGSCAASPPWRLIAVILGILCLVILVIAVVLGTMAIWRSNSGSNTLENGYFLSRNKENHSQPTQSSLEDSVTPTKAVKTTGVLSSPCPPNWIIYEKSCYLFSMSLNSWDGSKRQCWQLGSNLLKIDSSNELGFIVKQVSSQPDNSFWIGLSRPQTEVPWLWEDGSTFSSNLFQIRTTATQENPSPNCVWIHVSVIYDQLCSVPSYSICEKKFSM
B2: SCARF2 (protein, UniProt Q96GP6 44-871, looked up)
Scavenger receptor class F …: QELNPRGRNVCRAPGSQVPTCCAGWRQQGDECGIAVCEGNSTCSENEVCVRPGECRCRHGYFGANCDTKCPRQFWGPDCKELCSCHPHGQCEDVTGQCTCHARRWGARCEHACQCQHGTCHPRSGACRCEPGWWGAQCASACYCSATSRCDPQTGACLCHAGWWGRSCNNQCACNSSPCEQQSGRCQCRERTFGARCDRYCQCFRGRCHPVDGTCACEPGYRGKYCREPCPAGFYGLGCRRRCGQCKGQQPCTVAEGRCLTCEPGWNGTKCDQPCATGFYGEGCSHRCPPCRDGHACNHVTGKCTRCNAGWIGDRCETKCSNGTYGEDCAFVCADCGSGHCDFQSGRCLCSPGVHGPHCNVTCPPGLHGADCAQACSCHEDTCDPVTGACHLETNQRKGVMGAGALLVLLVCLLLSLLGCCCACRGKDPTRRPRPRRELSLGRKKAPHRLCGRFSRISMKLPRIPLRRQKLPKVVVAHHDLDNTLNCSFLEPPSGLEQPSPSWSSRASFSSFDTTDEGPVYCVPHEEAPAESRDPEVPTVPAEAPAPSPVPLTTPASAEEAIPLPASSDSERSASSVEGPGGALYARVARREARPARARGEIGGLSLSPSPERRKPPPPDPATKPKVSWIHGKHSAAAAGRAPSPPPPGSEAAPSPSKRKRTPSDKSAHTVEHGSPRTRDPTPRPPGLPEEATALAAPSPPRARARGRGPGLLEPTDAGGPPRSAPEAASMLAAELRGKTRSLGRAEVALGAQGPREKPAPPQKAKRSVPPASPARAPPATETPGPEKAATDLPAPETPRKKTPIQKPPRKKSREAAGELGRAGAPTL
B3: STX16 (protein, UniProt O14662 1-325, looked up)
Syntaxin-16: MATRRLTDAFLLLRNNSIQNRQLLAEQVSSHITSSPLHSRSIAAELDELADDRMALVSGISLDPEAAIGVTKRPPPKWVDGVDEIQYDVGRIKQKMKELASLHDKHLNRPTLDDSSEEEHAIEITTQEITQLFHRCQRAVQALPSRARACSEQEGRLLGNVVASLAQALQELSTSFRHAQSGYLKRMKNREERSQHFFDTSVPLMDDGDDNTLYHRGFTEDQLVLVEQNTLMVEEREREIRQIVQSISDLNEIFRDLGAMIVEQGTVLDRIDYNVEQSCIKTEDGLKQLHKAEQYQKKNRKMLVILILFVIIIVLIVVLVGVKSR
B4: RTN4R (protein, UniProt Q9BZR6 27-447, looked up)
Reticulon-4 receptor: CPGACVCYNEPKVTTSCPQQGLQAVPVGIPAASQRIFLHGNRISHVPAASFRACRNLTILWLHSNVLARIDAAAFTGLALLEQLDLSDNAQLRSVDPATFHGLGRLHTLHLDRCGLQELGPGLFRGLAALQYLYLQDNALQALPDDTFRDLGNLTHLFLHGNRISSVPERAFRGLHSLDRLLLHQNRVAHVHPHAFRDLGRLMTLYLFANNLSALPTEALAPLRALQYLRLNDNPWVCDCRARPLWAWLQKFRGSSSEVPCSLPQRLAGRDLKRLAANDLQGCAVATGPYHPIWTGRATDEEPLGLPKCCQPDAADKASVLEPGRPASAGNALKGRVPPGDSPPGNGSGPRHINDSPFGTLPGSAEPPLTAVRPEGSEPPGFPTSGPRRRPGCSRKNRTRSHCRLGQAGSGGGGTGDSEGS
B5: IgG Fc receptor II-b (protein, UniProt P31994 43-310, looked up)
Low affinity immunoglobulin …: TPAAPPKAVLKLEPQWINVLQEDSVTLTCRGTHSPESDSIQWFHNGNLIPTHTQPSYRFKANNNDSGEYTCQTGQTSLSDPVHLTVLSEWLVLQTPHLEFQEGETIVLRCHSWKDKPLVKVTFFQNGKSKKFSRSDPNFSIPQANHSHSGDYHCTGNIGYTLYSSKPVTITVQAPSSSPMGIIVAVVTGIAVAAIVAAVVALIYCRKKRISALPGYPECREMGETLPEKPANPTNPDEADKVGAENTITYSLLMHPDALEEPDDQNRI
B6: RASSF2 (protein, UniProt P50749 1-326, looked up)
Ras association …: MDYSHQTSLVPCGQDKYISKNELLLHLKTYNLYYEGQNLQLRHREEEDEFIVEGLLNISWGLRRPIRLQMQDDNERIRPPPSSSSWHSGCNLGAQGTTLKPLTVPKVQISEVDAPPEGDQMPSSTDSRGLKPLQEDTPQLMRTRSDVGVRRRGNVRTPSDQRRIRRHRFSINGHFYNHKTSVFTPAYGSVTNVRINSTMTTPQVLKLLLNKFKIENSAEEFALYVVHTSGEKQKLKATDYPLIARILQGPCEQISKVFLMEKDQVEEVTYDVAQYIKFEMPVLKSFIQKLQEEEDREVKKLMRKYTVLRLMIRQRLEEIAETPATI
B7: SCGB3A2 (protein, UniProt Q96PL1 22-93, looked up)
Secretoglobin family 3A …: FLINKVPLPVDKLAPLPLDNILPFMDPLKLLLKTLGISVEHLVEGLRKCVNELGPEASEAVKKLLEALSHLV
B8: SCAMP3 (protein, UniProt O14828 1-347, looked up)
Secretory carrier-associated …: MAQSRDGGNPFAEPSELDNPFQDPAVIQHRPSRQYATLDVYNPFETREPPPAYEPPAPAPLPPPSAPSLQPSRKLSPTEPKNYGSYSTQASAAAATAELLKKQEELNRKAEELDRRERELQHAALGGTATRQNNWPPLPSFCPVQPCFFQDISMEIPQEFQKTVSTMYYLWMCSTLALLLNFLACLASFCVETNNGAGFGLSILWVLLFTPCSFVCWYRPMYKAFRSDSSFNFFVFFFIFFVQDVLFVLQAIGIPGWGFSGWISALVVPKGNTAVSVLMLLVALLFTGIAVLGIVMLKRIHSLYRRTGASFQKAQQEFAAGVFSNPAVRTAAANAAAGAAENAFRAP
B9: RGMB (protein, UniProt Q6NW40 46-413, looked up)
Repulsive guidance molecule B: GDCQQPAQCRIQKCTTDFVSLTSHLNSAVDGFDSEFCKALRAYAGCTQRTSKACRGNLVYHSAVLGISDLMSQRNCSKDGPTSSTNPEVTHDPCNYHSHAGAREHRRGDQNPPSYLFCGLFGDPHLRTFKDNFQTCKVEGAWPLIDNNYLSVQVTNVPVVPGSSATATNKITIIFKAHHECTDQKVYQAVTDDLPAAFVDGTTSGGDSDAKSLRIVERESGHYVEMHARYIGTTVFVRQVGRYLTLAIRMPEDLAMSYEESQDLQLCVNGCPLSERIDDGQGQVSAILGHSLPRTSLVQAWPGYTLETANTQCHEKMPVKDIYFQSCVFDLLTTGDANFTAAAHSALEDVEALHPRKERWHIFPSSGN
B10: GLO1 (protein, UniProt Q04760 2-184, looked up)
Lactoylglutathione lyase: AEPQPPSGGLTDEAALSCCSDADPSTKDFLLQQTMLRVKDPKKSLDFYTRVLGMTLIQKCDFPIMKFSLYFLAYEDKNDIPKEKDEKIAWALSRKATLELTHNWGTEDDETQSYHNGNSDPRGFGHIGIAVPDVYSACKRFEELGVKFVKKPDDGKMKGLAFIQDPDGYWIEILNPNKMATLM
B11: SLAMF8 (protein, UniProt Q9P0V8 23-285, looked up)
SLAM family member 8: AQVLSKVGGSVLLVAARPPGFQVREAIWRSLWPSEELLATFFRGSLETLYHSRFLGRAQLHSNLSLELGPLESGDSGNFSVLMVDTRGQPWTQTLQLKVYDAVPRPVVQVFIAVERDAQPSKTCQVFLSCWAPNISEITYSWRRETTMDFGMEPHSLFTDGQVLSISLGPGDRDVAYSCIVSNPVSWDLATVTPWDSCHHEAAPGKASYKDVLLVVVPVSLLLMLVTLFSAWHWCPCSGKKKKDVHADRVGPETENPLVQDLP
B12: LAIR1 (protein, UniProt Q6GTX8 22-287, looked up)
Leukocyte-associated …: QEEDLPRPSISAEPGTVIPLGSHVTFVCRGPVGVQTFRLERDSRSTYNDTEDVSQASPSESEARFRIDSVREGNAGLYRCIYYKPPKWSEQSDYLELLVKESSGGPDSPDTEPGSSAGPTQRPSDNSHNEHAPASQGLKAEHLYILIGVSVVFLFCLLLLVLFCLHRQNQIKQGPPRSKDEEQKPQQRPDLAVDVLERTADKATVNGLPEKDRETDTSALAAGSSQEVTYAQLDHWALTQRTARAVSPQSTKPMAESITYAAVARH
B13: FAM3B (protein, UniProt P58499 30-235, looked up)
Protein FAM3B: ELIPDAPLSSAAYSIRSIGERPVLKAPVPKRQKCDHWTPCPSDTYAYRLLSGGGRSKYAKICFEDNLLMGEQLGNVARGINIAIVNYVTGNVTATRCFDMYEGDNSGPMTKFIQSAAPKSLLFMVTYDDGSTRLNNDAKNAIEALGSKEIRNMKFRSSWVFIAAKGLELPSEIQREKINHSDAKNNRYSGWPAEIQIEGCIPKERS
B14: ITGB6 (protein, UniProt P18564 22-788, looked up)
Integrin beta-6: GCALGGAETCEDCLLIGPQCAWCAQENFTHPSGVGERCDTPANLLAKGCQLNFIENPVSQVEILKNKPLSVGRQKNSSDIVQIAPQSLILKLRPGGAQTLQVHVRQTEDYPVDLYYLMDLSASMDDDLNTIKELGSRLSKEMSKLTSNFRLGFGSFVEKPVSPFVKTTPEEIANPCSSIPYFCLPTFGFKHILPLTNDAERFNEIVKNQKISANIDTPEGGFDAIMQAAVCKEKIGWRNDSLHLLVFVSDADSHFGMDSKLAGIVIPNDGLCHLDSKNEYSMSTVLEYPTIGQLIDKLVQNNVLLIFAVTQEQVHLYENYAKLIPGATVGLLQKDSGNILQLIISAYEELRSEVELEVLGDTEGLNLSFTAICNNGTLFQHQKKCSHMKVGDTASFSVTVNIPHCERRSRHIIIKPVGLGDALELLVSPECNCDCQKEVEVNSSKCHHGNGSFQCGVCACHPGHMGPRCECGEDMLSTDSCKEAPDHPSCSGRGDCYCGQCICHLSPYGNIYGPYCQCDNFSCVRHKGLLCGGNGDCDCGECVCRSGWTGEYCNCTTSTDSCVSEDGVLCSGRGDCVCGKCVCTNPGASGPTCERCPTCGDPCNSKRSCIECHLSAAGQAREECVDKCKLAGATISEEEDFSKDGSVSCSLQGENECLITFLITTDNEGKTIIHSINEKDCPKPPNIPMIMLGVSLAILLIGVVLLCIWKLLVSFHDRKEVAKFEAERSKAKWQTGTNPLYRGSTSTFKNVTYKHREKQKVDLSTDC
B15: PVALB (protein, UniProt P20472 2-110, looked up)
Parvalbumin alpha: SMTDLLNAEDIKKAVGAFSATDSFDHKKFFQMVGLKKKSADDVKKVFHMLDKDKSGFIEEDELGFILKGFSPDARDLSAKETKMLMAAGDKDGDGKIGVDEFSTLVAES

Test system: plasma proteins
Assay: Plasma proteins modulated between baseline and day 28 in responders (CR, VGPR, PR; n = 19), Example 6 (Table 13)
Format: in vivo, human
Conditions: plasma protein (OLINK NPX); responders (CR, VGPR, PR; n = 19); itacitinib 200 mg or 300 mg QD with corticosteroids; day 28 vs baseline
Method: Due to the limited sample size, steroid-naive (N=10) and steroid-refractory (N=18) patients were combined for further analysis. Broad proteomic analysis of over 1000 proteins was conducted by OLINK Proteomics (Watertown, MA) using a proximity extension assay as described by the manufacturer. Data are presented as normalized protein expression (NPX) in log 2 scale. Statistical differences were evaluated using unpaired and paired t tests, one-way […] (ANOVA), and Pearson Correlation. Significance was conferred when P<0.05.
Longitudinal differences in protein expression were analyzed by evaluating plasma samples from baseline/screening and day 28.

Row | Molecule | Fold Change, Decreased Expression from Baseline to Day 28 | Fold Change, Increased Expression from Baseline to Day 28
1 | B1 | −1.8103 | –
2 | B2 | – | 1.1639
3 | B3 | −1.4673 | –
4 | B4 | – | 1.195
5 | B5 | −1.3893 | –
6 | B6 | −1.5477 | –
7 | B7 | – | 1.3677
8 | B8 | −1.7405 | –
9 | B9 | – | 1.1254
10 | B10 | −1.2571 | –
11 | B11 | −1.492 | –
12 | B12 | −1.3173 | –
13 | B13 | – | 1.7951
14 | B14 | – | 1.152
15 | B15 | −2.0291 | –
